The test system of series [1] is binding antibodies against CNP-38 (and CNP-22). The method, then:
All subjects in the trial are being monitored for binding and, if relevant, neutralizing antibodies to CNP. […] Samples are collected in all subjects at screening visit, prior to initial dose, and post-dose at 1, 3, 6, 9 months+every 3 months for the duration of the study. Samples are analyzed using a fully validated anti-CNP antibody assay.
Prior to analysis of clinical samples, the assay was fully validated following regulatory requirements from both EMAA and FDA. In this approach, biotinylated and ruthenylated CNP-38 were prepared as a master mix. Samples were incubated at minimum required dilution (MRD) in the master mix to form complex and then plated on an MSD streptavidin plate where the biotinylated CNP-38 could also bind. The samples were then detected by the ruthenium labelled CNP-38 within the bound complexes, using an MSD 5600 plate reader. The presence of anti-drug antibody present was determined by comparing the signal to a statistically derived threshold, the assay cut point.

Series [2] deals with prepubertal children with achondroplasia. The following applies: 50 and 100 μg/kg vs placebo, 52 weeks. As to the method: In the phase 2 study reported in Example 4, X-rays of the hand were taken at the placebo group (6 patients assessed), cohort 3, 50 μg/kg (9 patients assessed) and cohort 4, 100 μg/kg (7 patients assessed) and the Hand Metacarpal/Phalangeal Profile (MCPP) was assessed.

For the substance Navepegritide [Compound (1)], in series [1] (1 to 9 months of repeated weekly exposure), the anti-CNP binding antibodies entry was “No anti-CNP binding antibodies have been detected”. Besides, the “treatment emergent anti-CNP antibodies” value in series [1] (57 patients followed for up to 65 weeks) is on record as “no treatment emergent anti-CNP antibodies were detected”. Also, in series [1] (samples at 1, 3, 6, 9 months + every 3 months), the “post-dose samples, anti-CNP antibodies” value is recorded as “confirmed negative”. For the same substance, in series [2], the hand length result is recorded as “clear trend for dose dependent increase”.

Values taken from patent US20260263563A1, “Method of Treatment of a Thoracolumbar Deformity in a Human Subject with Achondroplasia” (Ascendis Pharma Growth Disorders A/S, priority 2023, published 2026).
